Test results taken from paper doi:10.1101/545921.

Molecular target: AtGAPC1 C149S mutant (Arabidopsis thaliana)
Test: dynamic light scattering

- stoichiometry N: 4
Substance: AtGAPC1 C149S mutant (enzyme)
